Test results taken from US20240174744A1 (SCIRHOM, published 2024).

T1: dog iRhom2 full length wild type, C-terminally tagged with 3 consecutive copies of the T7 epitope (dog, UniProt Q00M95 1-827)
T1 construct: whole, on cells; also called Dog-iR2-FL-WT-T7
T1 sequence: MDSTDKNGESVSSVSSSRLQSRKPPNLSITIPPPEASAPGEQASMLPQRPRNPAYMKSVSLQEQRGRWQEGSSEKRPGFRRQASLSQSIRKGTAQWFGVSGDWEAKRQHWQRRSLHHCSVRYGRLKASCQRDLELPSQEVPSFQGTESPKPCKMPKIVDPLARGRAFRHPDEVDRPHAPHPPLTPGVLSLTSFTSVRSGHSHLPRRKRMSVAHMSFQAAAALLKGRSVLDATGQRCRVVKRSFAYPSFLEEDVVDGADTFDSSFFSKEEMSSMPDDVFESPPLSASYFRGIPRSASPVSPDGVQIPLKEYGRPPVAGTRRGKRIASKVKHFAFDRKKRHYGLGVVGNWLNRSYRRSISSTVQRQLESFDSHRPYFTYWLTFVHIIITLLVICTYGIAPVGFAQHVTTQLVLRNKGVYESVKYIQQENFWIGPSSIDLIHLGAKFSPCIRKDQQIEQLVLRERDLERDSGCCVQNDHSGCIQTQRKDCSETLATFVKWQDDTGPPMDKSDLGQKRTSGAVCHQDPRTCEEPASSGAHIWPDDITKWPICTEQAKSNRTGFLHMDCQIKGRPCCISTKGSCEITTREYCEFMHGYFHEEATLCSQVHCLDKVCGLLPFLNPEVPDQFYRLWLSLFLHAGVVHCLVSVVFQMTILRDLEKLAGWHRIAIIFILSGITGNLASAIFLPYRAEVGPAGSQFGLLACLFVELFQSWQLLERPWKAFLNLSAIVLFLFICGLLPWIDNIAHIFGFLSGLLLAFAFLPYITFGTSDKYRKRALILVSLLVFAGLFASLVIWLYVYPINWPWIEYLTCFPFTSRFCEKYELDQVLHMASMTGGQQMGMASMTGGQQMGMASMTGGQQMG

T2: hiR2-FL-P533-T7 (human iRhom2 full length with deletion of P533, 3 x T7 tag) (human, UniProt Q6PJF5 1-856)
T2 construct: The change is a deletion of one residue, not a substitution
T2 sequence: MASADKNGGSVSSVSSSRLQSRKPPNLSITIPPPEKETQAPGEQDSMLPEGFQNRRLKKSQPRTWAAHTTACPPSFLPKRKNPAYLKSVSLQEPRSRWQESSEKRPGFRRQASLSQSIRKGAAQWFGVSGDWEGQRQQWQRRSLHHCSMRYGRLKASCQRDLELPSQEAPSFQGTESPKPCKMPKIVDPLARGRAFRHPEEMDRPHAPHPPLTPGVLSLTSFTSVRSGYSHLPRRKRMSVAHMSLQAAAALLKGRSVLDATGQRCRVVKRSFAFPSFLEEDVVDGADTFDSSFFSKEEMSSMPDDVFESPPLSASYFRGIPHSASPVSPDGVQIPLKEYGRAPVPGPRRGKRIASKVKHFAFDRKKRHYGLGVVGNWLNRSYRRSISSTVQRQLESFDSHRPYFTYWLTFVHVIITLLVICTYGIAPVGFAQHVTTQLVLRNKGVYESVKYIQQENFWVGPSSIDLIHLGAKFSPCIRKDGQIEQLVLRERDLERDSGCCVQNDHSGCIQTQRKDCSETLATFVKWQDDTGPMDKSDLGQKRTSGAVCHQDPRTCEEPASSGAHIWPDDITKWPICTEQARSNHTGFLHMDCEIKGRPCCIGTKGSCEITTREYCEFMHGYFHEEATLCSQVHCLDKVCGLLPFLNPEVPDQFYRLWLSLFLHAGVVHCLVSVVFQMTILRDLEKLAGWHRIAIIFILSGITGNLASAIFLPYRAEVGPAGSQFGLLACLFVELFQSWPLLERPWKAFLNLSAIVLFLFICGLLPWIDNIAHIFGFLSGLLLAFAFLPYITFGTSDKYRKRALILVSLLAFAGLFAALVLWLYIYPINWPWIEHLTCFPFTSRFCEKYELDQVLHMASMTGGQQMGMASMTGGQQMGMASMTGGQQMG

B1: antibody 16 (antibody, V domains shown)
VH: QVTLKESGPGILQPSQTLSLTCSFSGFSLSTFALGVGWIRQPSGRGLEWLAHIWWDDDKYYNPALKSRLTISKDTSKNHVFLKIANVDTADTATYYCARITTYYYGMDYWGQGTSVTVSS
VL: DIVLSQSPATLSVTPGDSVSLFCRASQSIGNHLHWYQQESHASPRLLIKYASQSISGIPSRFSGSGSGTDFTLSINSVETEDFGMYFCQQSYNWPLTFGAGTKLELK
notes: Mouse IgG, kappa light chain; also called clone #16; m16
B2: antibody 3 (antibody, V domains shown)
VH: QVTLKESGPGILQPSQTLSLTCSFSGFSLTTFAMGIGWVRQPSGKGLEWLAHIWWDGEKYNNPVLKSRLTISKDTSKNQVFLRIANVDTPDTATYYCARISSIYYIIDNWGQGTSVTVSS
VL: DIVLTQSPATLSVTPGHSVSLSCRASQSISNNLHWYQKKSHESPRLLIKYVSQSISGIPSRFSGSGSGTDFTLSINSVETEDFGMYFCQQSYNWPLTFGAGTKLELK
notes: Mouse IgG, kappa light chain; also called clone #3; purified antibody 3

What was measured:
[1] = target: T1, dog iRhom2 full length wild type, …; experiment: FACS on MEF-DKO-iR2 Dog cells, 3 µg/ml
Description: In brief, immortalized MEF-DKO-EV control cells, MEF-DKO-rhesus-iR2-FL-WT-T7 cells, MEF-DKO-cyno-iR2-FL-WT-T7 cells, MEF-DKO-dog-iR2-FL-WT-T7 cells and MEF-DKO-rabbit-iR2-FL-WT-T7 cells, as well as their respective iRhom1 counterparts, were harvested with 10 mM EDTA in PBS, washed and resuspended in FACS buffer (PBS, 3% FBS, 0.05% sodium azide), and seeded in Nunc U-bottom 96-well plates (Thermo Fisher Scientific, USA) at approximately 3×10⁵ cells per well. To pellet cells and remove supernatants, the plates were centrifuged at 1,500 rpm and 4° C. for 3 minutes. For primary staining, cells were resuspended in 100 μl per well of either FACS buffer alone (controls), mouse monoclonal anti-T7 IgG (Merck Millipore, USA) at 3 μg/ml FACS buffer or the antibodies of the present disclosure also at 3 μg/ml FACS buffer and incubated on ice for 1 hour. Afterwards, plates were centrifuged at 1,500 rpm and 4° C. for 3 minutes and washed twice with 200 μl per well of FACS buffer. For secondary staining, cells were spun down and resuspended in 100 μl per well of PE-conjugated goat anti-mouse IgG F(ab′)2 detection fragment (Dianova, Germany) diluted 1:100 in FACS buffer. Protected from light, the cell suspensions were incubated on ice for 1 hour. […] Finally, cells were resuspended in 150 μl per well of FACS buffer and analyzed using a BD Accuri™ C6 Plus flow cytometer (Becton Dickinson, Germany).

[2] = target: T2, hiR2-FL-P533-T7 (human iRhom2 full …); experiment: FACS on MEF-DKO-hiR2-FL-P533- -T7 cells

| Binder | binding result [1] | binding result [2] |
| --- | --- | --- |
| B1 | binds |  |
| B2 |  | no binding (tested: 3 µg/ml) |
